Assay [1] concerns the target T1, GST-GRASP55 PDZ I (murine).
T1 construct: also called PDZ I of Grasp55; PDZI (1-79)
Description: ELISA, GST fusion on glutathione plate, biotinylated peptide. On the procedure: (§1) Ninety-six well plates coated with glutathione were incubated overnight with various GST fusion proteins. The plates were then washed, blocked and incubated with JAMs biotinylated peptides with or without PDZ binding motif. […] Results are expressed as Mean+/−SEM of Relative Unit of absorbance measured at 450 nm. […] One representative experiment is shown.
(§2) To set up ELISA test, various proteins of soluble GST-GRASP55 proteins were incubated on ninety-six-well plates (Nalge Nunc International) coated with glutathione. Plates were then washed and blocked with buffer containing PBS and 2% of bovine albumin for 2 hours. […] After three successive washes, streptavidin-HRP was added to reveal the various complexes, followed by a HRP substrate, tetramethylbenzidine (TMB). Absorbance (OD_{450 nm}) was determined on an ELISA POLARstar reader.

The target of assay [2] is T2, GST-PDZI′ recombinant Grasp55 protein (murine).
T2 construct: also called Grasp-GST-PDZI′; PDZI′-GST-construct
Put plainly: HTRF competition against biotinylated JAM-C peptide. How it is done:
(§3) In some experiments, competing peptide or chemicals were added to the incubation mix at the indicated concentration. After incubation, microtiter plates (Costar #3693) were red using PolarScan Omega (BMG Labtech) equipped for HTRF measurements. Upon excitation at 320 nm, a 620 nm fluorescence emission is produced by the donor terbium that in turn excites a 665 nm light emission by a Streptavidin-d2 (acceptor) bound to the Biotinylated interacting Peptide if the latter is interacting with the donor. The […] R ratio is obtained and a Delta F is computed as: [(Rₛₐₘₚₗₑ−RNSB)/RNSB]*100 where RNSB is the Non Specific Background signal determined in incubates where the GST-fusion protein was omitted.
For orientation: In TR-FRET formats the signal depends on donor and acceptor labels being close together.

The target of assay [3] is T3, Grasp55 PDZII (80-160), yeast two-hybrid construct (murine, UniProt Q99JX3 80-160).
T3 construct: also called isolated second PDZ domain
Put plainly: yeast two-hybrid, growth on selective medium. The source says:
(§4) The different GRASP55 constructs were cloned into pGBT9 GW vector (Ga14 DNA-binding domain fusion vector, Trp) as well in the pACT2 GW vector (Gal4 DNA-activation domain fusion vector, Leu) using the Gateway technology (Invitrogen). Plasmids were then co-transformed in AH109 yeast strain (/MATa, trp1-901, leu2-3, 112, ura3-52, his3-200, gal4/A, /gal80/A, /LYS2::GAL1//UAS//-GAL1//TATA//-HIS3, GAL2//UAS//-GAL2//TATA//-ADE2, URA3::MEL1//UAS//-MEL1//TATA//-lacZ, MEL1/) in accordance with the previously described transformation protocol (Chien et al. 1991. Proc Natl Acad Sci USA. 88:9578-82). Following co-transformation with the two vectors containing the different constructs (as well as the empty vector to test self activation), yeasts were plated onto Synthetic Complete (SC) medium minus Leucine (−L), minus Tryptophan (−W), minus Histidine (−H) and incubated at 30° C. for 4 to 5 days. All yeast media were prepared as previously described.
(§5) GST fusion proteins were produced and yeast two-hybrid assay was performed as previously described in example 1.

Assay [4] concerns the target Grasp55 PDZI + II (1-160), yeast two-hybrid construct (murine, UniProt Q99JX3 1-160). Put plainly: yeast two-hybrid, growth on selective medium.
Text: as §4, §5

In assay [5] the target is T4, Grasp55 FL, yeast two-hybrid construct (murine, UniProt Q99JX3 1-451).
T4 construct: Gal4 fusion expressed in yeast AH109; also called wt Grasp55
Put plainly: yeast two-hybrid, growth on selective medium.
Text: as §4, §5

Assay [6] has as its target T5, Grasp55 PDZI (1-79), yeast two-hybrid construct (murine, UniProt Q99JX3 1-79).
T5 construct: also called isolated first PDZ domain
Description: yeast two-hybrid, growth on selective medium.
Text: as §4, §5

The target of assay [7] is T6, Grasp55 (Golgi reassembly-stacking protein of 55 kDa), endogenous mouse protein in cell lysates (murine, UniProt Q99JX3 2-451, limits assumed).
T6 construct: Endogenous protein detected by mass spectrometry or anti-GRASP55 blot
Description: co-immunoprecipitation, anti-GRASP55 blot. On the procedure:
(§6) Total cell lysates were used as controls. Proteins were then resolved on SDS-PAGE and blotted with anti-GRASP55 antibody. Arrows indicate the signal corresponding to Grasp55.
Protein concentration of the samples was determined according to the Bradford method.

The target in assay [8] is Grasp55 PDZI′ (1-107), yeast two-hybrid construct (murine, UniProt Q99JX3 1-107). Put plainly: yeast two-hybrid, growth on selective medium.
Text: as §4, §5

For assay [9], the target named is Grasp55 PDZII′ (108-208), yeast two-hybrid construct (murine, UniProt Q99JX3 108-208). Description: yeast two-hybrid, growth on selective medium.
Text: as §4, §5

The target in assay [10] is T6, Grasp55 (Golgi reassembly-stacking …). Description: peptide pull-down of KLN205 lysates, mass spectrometry. From the text:
As control, the same peptides, but deleted of the last three amino-acids known as the functional PDZ binding motif of JAM family members, were used.

The target of assay [11] is Grasp55 PDZI′ + II′ (1-208), yeast two-hybrid construct (murine, UniProt Q99JX3 1-208). Put plainly: yeast two-hybrid, growth on selective medium.
Text: as §4, §5

Assay [12] has as its target T7, GST-GRASP55 PDZ I+II (murine).
T7 construct: also called PDZ I+II of Grasp55; PDZI+II (1-160)
Put plainly: ELISA, GST fusion on glutathione plate, biotinylated peptide. How it is done: as §1, §2

The target of assay [13] is T6, Grasp55 (Golgi reassembly-stacking …). Description: peptide pull-down of cell lysates, anti-GRASP55 blot.
Text: as §6

In assay [14] the target is T2, GST-PDZI′ recombinant Grasp55 protein. Put plainly: HTRF. On the procedure: as §3
Assay [15] addresses T8, GST-PDZI′+II′ recombinant Grasp55 protein (murine).
T8 construct: also called Grasp-GST-PDZI′+II′
Put plainly: HTRF. How it is done: as §3

Where no end group is shown, it is not given here.

T2 sequence (chain, as listed by the source): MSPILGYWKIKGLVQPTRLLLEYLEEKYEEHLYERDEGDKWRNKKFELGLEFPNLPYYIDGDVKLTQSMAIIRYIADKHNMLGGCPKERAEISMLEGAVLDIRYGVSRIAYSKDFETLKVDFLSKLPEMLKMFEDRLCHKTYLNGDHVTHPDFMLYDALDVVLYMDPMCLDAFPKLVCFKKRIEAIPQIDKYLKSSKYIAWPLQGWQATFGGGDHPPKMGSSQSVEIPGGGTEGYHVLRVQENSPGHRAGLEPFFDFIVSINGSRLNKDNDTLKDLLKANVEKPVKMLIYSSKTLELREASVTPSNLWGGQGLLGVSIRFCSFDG
T1 sequence (chain, as listed by the source): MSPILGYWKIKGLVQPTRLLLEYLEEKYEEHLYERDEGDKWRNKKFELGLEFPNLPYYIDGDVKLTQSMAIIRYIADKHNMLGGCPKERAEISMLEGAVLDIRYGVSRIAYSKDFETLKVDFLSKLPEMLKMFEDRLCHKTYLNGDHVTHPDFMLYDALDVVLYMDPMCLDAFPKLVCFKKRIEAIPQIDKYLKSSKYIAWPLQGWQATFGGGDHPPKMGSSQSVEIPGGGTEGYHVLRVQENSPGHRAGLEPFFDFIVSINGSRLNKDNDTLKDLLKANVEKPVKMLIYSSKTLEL
T7 sequence (chain, as listed by the source): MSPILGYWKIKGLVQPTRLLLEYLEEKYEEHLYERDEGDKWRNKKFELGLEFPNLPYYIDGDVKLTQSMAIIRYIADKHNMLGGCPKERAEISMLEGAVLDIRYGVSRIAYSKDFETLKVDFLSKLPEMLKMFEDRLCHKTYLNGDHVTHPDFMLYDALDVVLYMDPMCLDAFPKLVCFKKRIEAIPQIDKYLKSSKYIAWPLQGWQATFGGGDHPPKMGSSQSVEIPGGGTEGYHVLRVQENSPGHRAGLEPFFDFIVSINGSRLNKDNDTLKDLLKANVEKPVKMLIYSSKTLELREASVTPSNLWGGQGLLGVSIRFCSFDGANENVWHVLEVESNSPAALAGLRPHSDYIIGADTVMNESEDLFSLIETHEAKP

B1: biotinylated peptide corresponding to the last 19 amino-acids of JAM-C (peptide)
peptide: NYIRTSEEGDFRHKSSFVI
modifications: also: biotinylated (position not given here)
notes: also called JAM-C peptide; biotinylated JAM-C
For the molecule B1, in [1], the binding result is reported as “no binding”.
As for NYIRTSEEGDFRHKSSFVI (also called JAM-C unlabelled peptide) [non-biotinylated (unlabelled) JAM-C peptide], the “fold increase in EC50 against GST-PDZI′+II′ and GST-GraspFL” value in assay [2] is 20 fold.

B2: JAM-B cytoplasmic C-terminal construct, yeast two-hybrid (other)
chain: TCYAQRKGYFSKETSFQKGSPASKVTTMSENDFKHTKSFII
notes: not shown: Gal4 domain of the two-hybrid vector
Consider B2, for which the binding result in [3] was “no binding”; in assay [4], “binds”; in assay [5] it was “binds”; in assay [6], “no binding”.

B3: JAM-B ΔPDZbm, yeast two-hybrid construct lacking the last three amino-acids (other)
chain: TCYAQRKGYFSKETSFQKGSPASKVTTMSENDFKHTKS
notes: End at 295 worked out from 'deletion of the last three amino-acids' of 258-298; not shown: Gal4 domain of the two-hybrid vector
For B3, the binding result in assay [3], in [4], in assay [5] and in assay [6] was “no binding” each time.

B4: JAM-A ΔPDZbm, yeast two-hybrid construct lacking the last three amino-acids (other)
chain: AYSRGYFETTKKGTAPGKKVIYSQPSTRSEGEFKQTS
notes: End at 296 worked out from 'deletion of the last three amino-acids' of 260-299; not shown: Gal4 domain of the two-hybrid vector
As for B4, the binding result in assay [3], in [4], in assay [5] and in assay [6] was “no binding” in each case.

B5: JAM-C, endogenous mouse protein immunoprecipitated with rat mAb 19H36 (receptor)
chain: EAVNLKSSNRNPVVHEFESVELSCIITDSQTSDPRIEWKKIQDGQTTYVYFDNKIQGDLAGRTDVFGKTSLRIWNVTRSDSAIYRCEVVALNDRKEVDEITIELIVQVKPVTPVCRIPAAVPVGKTATLQCQESEGYPRPHYSWYRNDVPLPTDSRANPRFQNSSFHVNSETGTLVFNAVHKDDSGQYYCIASNDAGAARCEGQDMEVYDLNIAGIIGGVLVVLIVLAVITMGICCAYRRGCFISSKQDGESYKSPGKHDGVNYIRTSEEGDFRHKSSFVI
notes: also called junctional adhesion molecule C
Take B5: in [7], the binding result is listed as “binds”.

B6: ADAM10 C-terminal sequence, yeast two-hybrid construct (other)
chain: FIKICSVHTPSSNPKLPPPKPLPGTLKRRRPPQPIQQPPRQRPREYQMGHMRR
notes: as for B2
Take B6: the binding result in assay [8], in assay [9] and in assay [6] was “no binding” throughout.

B7: JAM-A, endogenous mouse protein immunoprecipitated with rat mAb H202 (receptor)
chain: KGSVYTAQSDVQVPENESIKLTCTYSGFSSPRVEWKFVQGSTTALVCYNSQITAPYADRVTFSSSGITFSSVTRKDNGEYTCMVSEEGGQNYGEVSIHLTVLVPPSKPTISVPSSVTIGNRAVLTCSEHDGSPPSEYSWFKDGISMLTADAKKTRAFMNSSFTIDPKSGDLIFDPVTAFDSGEYYCQAQNGYGTAMRSEAAHMDAVELNVGGIVAAVLVTLILLGLLIFGVWFAYSRGYFETTKKGTAPGKKVIYSQPSTRSEGEFKQTSSFLV
notes: also called junctional adhesion molecule A
For the molecule B7, the binding result in assay [7] is recorded as “binds”.
On to SKVTTMSENDFKHTKS (also: biotinylated (position not given here), also called JAM-BΔ) [biotinylated JAM-B control peptide, last 19 amino-acids deleted of the last three amino-acids], for which, in assay [10], the binding result is recorded as “no binding”.

B8: JAM-C cytoplasmic C-terminal construct, yeast two-hybrid (other)
chain: ICCAYRRGCFISSKQDGESYKSPGKHDGVNYIRTSEEGDFRHKSSFVI
notes: also called JAM-C C-terminal region; not shown: Gal4 domain of the two-hybrid vector
B8: the binding result is “no binding” in assay [3]; “binds” in [8]; “binds” in assay [4]; “binds” in assay [5]; “binds” in assay [11]; “no binding” in assay [9]. Moreover, in assay [6], the binding result is “no binding”.
With NYIRTSEEGDFRHKSS (also: biotinylated (position not given here), also called JAM-CΔ) [biotinylated JAM-C control peptide ΔPDZbm, lacking the last three amino-acids], the binding result is given as “no binding” in assay [12], “no binding” in assay [13], “no binding (tested: 1.9*10^-7M peptide)” in assay [14] and “no binding (tested: 1.9*10^-7M peptide)” in assay [15].

B9: ADAM17 C-terminal sequence, yeast two-hybrid construct (other)
chain: CVDKKLDKQYESLSLFHHSNIEMLSSMDSASVRIIKPFPAPQTPGRLQALQPAAMMPPVSAAPKLDHQRMDTIQEDPSTDSHVDDDGFEKDPFPNSSTAAKSFEDLTDHPVTRSEKAASFKLQRQSRVDSKETEC
notes: as for B2
As to B9, the binding result in [3] is reported as “binds”; in assay [8] it was “no binding”; in assay [4] it was “no binding”; in [11], “no binding”; in [9], “no binding”; in [6], “no binding”.

B10: JAM-C ΔPDZbm, yeast two-hybrid construct lacking the last three amino-acids (other)
chain: ICCAYRRGCFISSKQDGESYKSPGKHDGVNYIRTSEEGDFRHKSS
notes: End at 307 worked out from 'deletion of the last three amino-acids' of 263-310; not shown: Gal4 domain of the two-hybrid vector
For the molecule B10, the binding result in assay [3], in assay [8], in [4], in assay [5], in assay [11] and in [9] was “no binding” in each case. The binding result in assay [6] is “no binding”.

B11: JAM-B, endogenous mouse protein immunoprecipitated with rat mAb JB4 (receptor)
chain: FSASKDHRQEVTVIEFQEAILACKTPKKTTSSRLEWKKVGQGVSLVYYQQALQGDFKDRAEMIDFNIRIKNVTRSDAGEYRCEVSAPTEQGQNLQEDKVMLEVLVAPAVPACEVPTSVMTGSVVELRCQDKEGNPAPEYIWFKDGTSLLGNPKGGTHNNSSYTMNTKSGILQFNMISKMDSGEYYCEARNSVGHRRCPGKRMQVDVLNISGIIATVVVVAFVISVCGLGTCYAQRKGYFSKETSFQKGSPASKVTTMSENDFKHTKSFII
notes: also called junctional adhesion molecule B
As for B11, the binding result in assay [7] is listed as “binds”.

Source of the values: patent US20130309252A1 (UNIVERSITE DE LA MEDITERRANEE AIX MARSEILLE II, published 2013).
